Reference: patent EP4644419A1 (Hangzhou Zhongmeihuadong Pharmaceutical Co., Ltd., dated 2025)

T1: human CD112R antigen protein huCD112R-His (Acro Biosysterm, PVG-H52H4) (human, UniProt Q6DKI7 41-171)
T1 construct: purchased; also called human antigen protein; not shown: His tag
T1 sequence (looked up): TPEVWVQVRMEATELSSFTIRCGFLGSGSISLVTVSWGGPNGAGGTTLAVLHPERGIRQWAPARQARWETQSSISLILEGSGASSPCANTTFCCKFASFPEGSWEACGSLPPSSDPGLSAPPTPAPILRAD

T2: monkey antigen protein (monkey CD112R, Uniprot ID: A0A2K5WVV8) (monkey, UniProt A0A2K5WVV8 41-171)
T2 sequence: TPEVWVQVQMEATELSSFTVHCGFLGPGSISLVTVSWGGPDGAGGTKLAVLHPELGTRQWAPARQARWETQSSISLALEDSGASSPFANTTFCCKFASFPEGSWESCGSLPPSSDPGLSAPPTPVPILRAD


Key:
[1] = target: T1, human CD112R antigen protein …; test: ELISA, huCD112R-His coated on plate
[2] = target: T2, monkey antigen protein (monkey CD112R, …); test: ELISA, monkey antigen protein (as Example 6.1)

EC50 [1] [nM]	EC50 [2] [nM]	Binder
0.055	0.058	C6 (antibody, human IgG1, kappa, V domains shown) VH: QVHLHQSGPELVKPGASVKISCKASGYTFTAYYINWVKQRPGQGLEWIGWIFPGSDSTYYNEKFKGRATLTVDKSSSTAYMLLNSLTSEDSAVYFCARDGELRGPFDYWGQGTTLTVSS VL: DIQMTQSPSSLSASLGGKVTITCKASQDINKYIAWYQHKPGKSPRLLIHYTSTLQAGIPSRFSGSGSGRDYSFSISNLEPEDSATYYCLQYDNLLTFGGGTKLEIKR
0.059	0.114	C45 (antibody, human IgG1, kappa, V domains shown) VH: QVHLQQSGPDLVKPGVSVKISCKASGYTFTDYYINWVKQRPGQGLEWIGWIFPGSGTTYYNEKFKGKATLTVDKSSSTAYMLLSSLTSEDSAVYFCARDGGLRGPFDYWGQGTTLTVSS VL: DIQMTQSPSSLSASLGGKVTITCKANQDINKYIAWYQYKPGKGPRLLIHYTSTLQPDIPSRFSGSGSGRDFSFSISNLEPEDIATYYCLQYDYLYTFGGGTKLEIKR
0.053	0.076	C44 (antibody, human IgG1, kappa, V domains shown) VH: QVQLQQSGPELMKPGASLKISCKASGYTFTDSYINWVKQRPGQGLEWIGWIFPGSGSTYYNEKFKGTATLTVDKSSSTAYMLLSSLTSEDSAAYFCARDGGLRGPFDYWGQGTTLTVSS VL: DIQMTQSPSSLSASLGGKVTITCKASQDINKYIAWYQHKPGKGPRLLIHYTSTLQSGIPSRFSGSGSGRDYFFSISNLESEDIATYYCLQYDHLLTFGGGTKLEIKR
0.037	0.055	C121 (antibody, human IgG1, kappa, V domains shown) VH: EVQLQQSGPEVVKPGASVKISCKASGNTFTDYFINWVKQSHGKSLEWIGDINPDNGGTNYNQKFKGKATLTVDKSSGTAFMGLRSLTSEDSAVYYCATLYFDYWGQGTSLTVSS VL: DIVMTQSPSSLSVSAGEKVTMSCKSSQSLLNSGNQKNYLAWYQQKPGQPPKLLIYGASTRESGVPDRFTGSGSGTDFTLTISSVQAEDLAVYYCQNAHSSPYTFGGGTRLEIKR
0.03	0.031	C122 (antibody, human IgG1, kappa, V domains shown) VH: EVQLQQSGPEVVKPGASVKISCKASGNTFTDYFINWVKQRHGKSLEWIGDVNPDNGGTNYNQKFKGKATLTVDKSSGTAFMGLRSLTSEDSAVYYCATLFFDSWGQGTTLTVSS VL: DIVMTQSPSSLNVSAGEKVTMSCKSSQSLLNSGNQKNYLAWYQQKPGQPPKLLIYGASTRESGVPDRFTGSGSGTDFTLTISSVQAEDLALYYCQNAHSSPYTFGGGTKLEIKR
0.052	0.07	C9 (antibody, human IgG1, kappa, V domains shown) VH: EVQLQQSGAELVKPGASVKLSCTASGFNIKDIYMHWLKQRPEQGLEWIGRIDPTNGNSEYDPRFRGKATLTADTSSNIAYLQLSSLTSEDTAVYYCARFGIYPYFDYWGQGTTLTVSS VL: GIVMTQTPKFLLVSAGDRVTITCKASQSVNKAVVWYQQKPGQSPKLLISYASNRYTGVPDRFTGSGYGTDFTFSISTVQAEDLAVYFCQQDYSSPWTFGGGTKLEIKR
0.089	–	C61 (antibody, human IgG1, kappa, V domains shown) VH: DVQLQESGPGLVKPSQSLSLTCSVTGYSITSNYYWNWIRQFPGNNLEWMGYISSDGTNNYNPSLRNRISITRDTSKNQFFLKLNSVTTEDTATYYCARGLRYGPWGQGTTLTVSS VL: QLILTQSSSASFSLGASAKLTCTLSSQHSTYTIEWYQQQPLKAPKYVMEVKNDGSHRTGDGIPDRFSGSSSGADRYLSISNIQPEDEAIYICGVGDINNYIFGGGTKVTVLR
0.228	0.224	C51 (antibody, human IgG1, kappa, V domains shown) VH: QVQLQQSGAELVRPGASVTLSCKASGYTFTDYEMHWVKQTPVHGLEWIGAIDPETGGTAYNQKFKGKAILTADKSSSTAYMELRSLTSEDSAVYYCTRWITTVVATLYYFDYWGQGTTLTVSS VL: DIVMTQSQKFMSTSVGDRVSITCKASQNVRTAVAWYQQKPGQSPKALIYLASNRHTGVPDRFTGSGSGTDFTLTISNVQSEDLADYFCLQHWNYPLTFGAGTKLELKR
0.025	0.08	C119 (antibody, human IgG1, kappa, V domains shown) VH: EVKLVESGGGLVQPGGSLKLSCVASGFTFNTYIMSWVRQTPEKRLELVADISNSGGNTYYSDTVKGRFTISRDNAKNTLYLQMSSLKSEDTAMYYCARPDNWDPFVYWGQGTLVTVSA VL: DIQMTQSSSSFSVSLGDRVTITCKASEDIYARLAWYQQKPGNAPRLLISGATSLETGVPSRFSGSGSGKNYTLSITSLQTEDVGTYYCQQHWSTPWTFGGGTNLEIKR
0.025	0.061	C116 (antibody, human IgG1, kappa, V domains shown) VH: EVKLVESGGGLVQPGGSLKLSCAVSGFTFSSYTMSWVRQTPEKRLELVAKISNSGGSTNYPDTVKGRFTLSRDNVKNTLYLQMSSLKSEDTAIYYCTRYSWDVYAMDYWGQGTSVTVSS VL: DIQMTQSPASLSASVGETVIITCRASENIYSYLAWYQQKQGKSPHLLVYNAETLVEGVPSRFSGSGSATQFSLKINSLQPEDFGTYYCQHHYGDPTFGGGTKLEIKR
0.029	0.057	C118 (antibody, human IgG1, kappa, V domains shown) VH: QVQLQQPGAELVKPGTSVKLSCKAAGYIFTSSWMHWVKQRPGQGLEWIGEINPSDGRTNYNEKFKNKATLTVDHSSSTAYMQLSSLTSEDSAVYYCASNADRAYYTMDYWGQGTSVTVSS VL: not shown
0.028	0.055	C112 (antibody, human IgG1, kappa, V domains shown) VH: QVQLQQPGAELVKPGASVKLSCKASGYTFTSSWMHWVKQRPGQGLEWIGEINPSDGRTNYNEKFKSKATLTVDHSSSTAYMQLSSLTSEDSAVYYCASNADRAYYTMDYWGQGTSVTVSS VL: not shown
0.035	0.056	C123 (antibody, human IgG1, kappa, V domains shown) VH: EVQLVESGGGLVKPGGSLKLSCAASGFTFSNFAMSWVRQTPAMRLESVATIVNGGINTYYPDTVKGRFTVSRDNAKNTLYLQMSSLRSEDTAIYYCARHDDFLYYAMDYWGQGTSVTVSS VL: QIVLTQSPAIMSASPGEKVTMTCSASSSVSYMFWYQQKPGSSPRLLIYDTSNLASGVPVRFSGSGSGTSYSLTISRLEAEDAATYYCQQWTSYPLTFGAGTKLDLKR
0.025	0.04	C143 (antibody, human IgG1, kappa, V domains shown) VH: EVQLVESGGGLVKPGGSLKLSCAASGFTFSNFAMSWVRQTPAMRLESVATIVNGGINTYYPDTVKGRFTVSRDNAKNTLYLQMSSLRSEDTAIYYCARHDDFLYYAMDYWGQGTSVTVSS VL: QIVLTQSPAIMSASPGEKVTMTCSASSSVNYMFWYQQKPGSSPRLLIYDTSNLASGVPVRFSGSGSGTSYSLTISRLEAEDAATYYCQQWTSYPLTFGAGTKLDLKR
0.032	0.034	C110 (antibody, human IgG1, kappa, V domains shown) VH: EVQLQQSGAELAKPGASVKLSCTVSGFNIKDTYIHWVKQRPEQGLEWIGGIDPAIGNTVSASKFQDKATITADTSSSTAYMQLSSLTSGDTAVYYCARERVHSNTLYYAMDYWGQGTSVTVSS VL: DIVLTQSPASLAVSLGQRATISCRASKSVSISGYSYMHWYQQKPGQPPKLLIYLASNLESGVPARFSGSGSGTDFTLNIHPVEEEDAATYYCQHSRELPPTFGGGTKLEIKR
0.064	–	C38 (antibody, human IgG1, kappa, V domains shown) VH: QVQLQQSGAELMKPGASVKLSCKATGYTFTGYWIEWVKQRPGHGLEWIGEILPESGRTNYNEKFKGKATFTADTSSNTAYMQLSSLTTEDSAIYYCASLLFFDYWGQGTTLTVSS VL: not shown
0.051	0.044	C43 (antibody, human IgG1, kappa, V domains shown) VH: QVQLQQPGAELVRPGTSVKLSCKASGNTFTTYWMHWVKQRPGQGHEWIGVIDASDSNTKYNQKFKGKATLTVDTSSSTAYMQLSSLTSEDSAVYYCARYYSGSSYGLDYWGQGTTLTVSS VL: DIQMTQTASSLSASLGDRVTISCRASQDISNYLNWYQQKPDGTVKLLIYYTSRLHSGVPSRFSGSGSGTDYSLTITNLEQEDIASYFCQQGNMFPPTFGGGTKLEIKR
0.023	0.051	C69 (antibody, human IgG1, kappa, V domains shown) VH: EVQLQQSGPVLVKPGASVKMSCKASGYRLTDYYMHWVKQSHGKSLEWIGIINPYNGGTSYNQKFKGKATLTVDKSSSTAYMELNSLTSDDSAVYYCARDSSNVGNDMDYWGQGTSVSVSS VL: DIQMTQTTSSLSASLGDRVTISCRASQDISNYLNWYLQKPDGTVKLLIYYSSRLHSGVPSRFSGSGSGTDYSLTINNLEQEDIATYFCQQGNTLPRTFGGGTKLEIRR
0.052	3.8	C25 (antibody, human IgG1, kappa, V domains shown) VH: QVQLQQPGAELVRPGTSVKLSCKASGNTFTSYWMHWVKQRPGQGHEWIGVIDASDSKTKYNQKFKGKATLTVDTSSSTAYMQLSSLTSEDSAVYYCARYYSGSSYGLDYWGQGTTLTVSS VL: DIQMTQTASSLSASLGDRVTISCRASQDISNYLNWYQQKPDGTVKLLIYYTSRLHSGVPSRFSGSGSGTDYSLTISNLEQEDIATYFCQQGNTLPPTFGGGTKLEIKR
0.041	0.045	C117 (antibody, human IgG1, kappa, V domains shown) VH: QVQLQQSGAELARPGASVKMSCKASGYTFTDYWMQWVKQRPGQGLEWIGAIFPGNGETRDTQKFKGRATLTADRSSSTAYIQLSSLTSEDSAVYYCATFNNYLDYWGQGTTLTVAS VL: QIVLTQSPAIMSASPGEKVTMTCSASSSVSYMHWYQQKSGASPKRWIYDTSKLTSGVPARFSGSGSGTSYSLTISNMEAEDAATYYCQQWISNPYTFGGGTKLEIKR
1.3	–	C33 (antibody, human IgG1, kappa, V domains shown) VH: QVQLQQSGPELVKPGASVKISCKASGYTFTDYYINWVKQRPGQGLEWIGWIFPGSGSTYYNEKFKGKATPTVDKYSSTAYMLLSSLTSEDSAVYFCAREDYFDRGDCWGQGTSVTVSS VL: QIVLTQSPAIMSASPGEKVTMTCSASSSINYMHWYQQKPGTSPKRWIYDTSKLASGVPARFSGSGSGTSYSLTISSMEAEDAATYYCHQRSSYPFTFGSGTKLEIKR
